Results reported in PMC7295778.
Each block holds one substance with its values, some of them ahead of it.

Experiments:
[1] = target: KirBac3.1 A133C-T136C (Cys-less background C262S, C71V, C119V), disulfide-linked (UniProt D9N164); assay: native MS; 200 mM ammonium acetate pH 8.0, 0.5% C8E4; Q-ToF and QExactive; collision-induced dissociation in the gas phase on the Q-ToF
[2] = target: KirBac3.1 A133C-T136C (Cys-less background C262S, C71V, C119V), disulfide-linked (UniProt D9N164); assay: cross-linking; purified cysteine-pair mutants at 0.03-4 mg/ml in 20 mM TRIS pH 8.0, 150 mM KCl, 0.02% DDM; MTS-1-MTS 0.5 mM, dibromobimane 2.5 mM or CuSO4 1 mM, room temperature, 30 min; read by SDS-PAGE
[3] = target: KirBac3.1 S129C-F135C (Cys-less background C262S, C71V, C119V) crosslinked with MTS-1-MTS (UniProt D9N164); assay: native MS; 200 mM ammonium acetate pH 8.0, 0.5% C8E4; Q-ToF and QExactive; collision-induced dissociation in the gas phase on the Q-ToF
[4] = target: KirBac3.1 S129C-F135C (Cys-less background C262S, C71V, C119V) crosslinked with MTS-1-MTS (UniProt D9N164); assay: cross-linking; purified cysteine-pair mutants at 0.03-4 mg/ml in 20 mM TRIS pH 8.0, 150 mM KCl, 0.02% DDM; MTS-1-MTS 0.5 mM, dibromobimane 2.5 mM or CuSO4 1 mM, room temperature, 30 min; read by SDS-PAGE
[5] = target: KirBac3.1 S129C-F135C (Cys-less background C262S, C71V, C119V) crosslinked with dibromobimane (UniProt D9N164); assay: native MS; 200 mM ammonium acetate pH 8.0, 0.5% C8E4; Q-ToF and QExactive; collision-induced dissociation in the gas phase on the Q-ToF
[6] = target: KirBac3.1 S129C-F135C (Cys-less background C262S, C71V, C119V) crosslinked with dibromobimane (UniProt D9N164); assay: cross-linking; purified cysteine-pair mutants at 0.03-4 mg/ml in 20 mM TRIS pH 8.0, 150 mM KCl, 0.02% DDM; MTS-1-MTS 0.5 mM, dibromobimane 2.5 mM or CuSO4 1 mM, room temperature, 30 min; read by SDS-PAGE
[7] = target: KirBac3.1 A133C-T136C (Cys-less background C262S, C71V, C119V) crosslinked with MTS-1-MTS (UniProt D9N164); assay: native MS; 200 mM ammonium acetate pH 8.0, 0.5% C8E4; Q-ToF and QExactive; collision-induced dissociation in the gas phase on the Q-ToF
[8] = target: KirBac3.1 A133C-T136C (Cys-less background C262S, C71V, C119V) crosslinked with MTS-1-MTS (UniProt D9N164); assay: cross-linking; purified cysteine-pair mutants at 0.03-4 mg/ml in 20 mM TRIS pH 8.0, 150 mM KCl, 0.02% DDM; MTS-1-MTS 0.5 mM, dibromobimane 2.5 mM or CuSO4 1 mM, room temperature, 30 min; read by SDS-PAGE
[9] = target: KirBac3.1 A133C-T136C (Cys-less background C262S, C71V, C119V) crosslinked with dibromobimane (UniProt D9N164); assay: native MS; 200 mM ammonium acetate pH 8.0, 0.5% C8E4; Q-ToF and QExactive; collision-induced dissociation in the gas phase on the Q-ToF
[10] = target: KirBac3.1 A133C-T136C (Cys-less background C262S, C71V, C119V) crosslinked with dibromobimane (UniProt D9N164); assay: cross-linking; purified cysteine-pair mutants at 0.03-4 mg/ml in 20 mM TRIS pH 8.0, 150 mM KCl, 0.02% DDM; MTS-1-MTS 0.5 mM, dibromobimane 2.5 mM or CuSO4 1 mM, room temperature, 30 min; read by SDS-PAGE
[11] = target: KirBac3.1 S129C-F135C (Cys-less background C262S, C71V, C119V), disulfide-linked (UniProt D9N164); assay: native MS; 200 mM ammonium acetate pH 8.0, 0.5% C8E4; Q-ToF and QExactive; collision-induced dissociation in the gas phase on the Q-ToF
[12] = target: KirBac3.1 S129C-F135C (Cys-less background C262S, C71V, C119V), disulfide-linked (UniProt D9N164); assay: cross-linking; purified cysteine-pair mutants at 0.03-4 mg/ml in 20 mM TRIS pH 8.0, 150 mM KCl, 0.02% DDM; MTS-1-MTS 0.5 mM, dibromobimane 2.5 mM or CuSO4 1 mM, room temperature, 30 min; read by SDS-PAGE

Substance: KirBac3.1 A133C-T136C (Cys-less background C262S, C71V, C119V), disulfide-linked (from UniProt D9N164 1-295) (natural protein)
stoichiometry N [1]: 4
stoichiometry N [2]: 4

Substance: KirBac3.1 S129C-F135C (Cys-less background C262S, C71V, C119V) crosslinked with MTS-1-MTS (from UniProt D9N164 1-295) (natural protein)
stoichiometry N [3]: 4
stoichiometry N [4]: 4

Substance: KirBac3.1 A133C-T136C (Cys-less background C262S, C71V, C119V) crosslinked with MTS-1-MTS (from UniProt D9N164 1-295) (natural protein)
stoichiometry N [7]: 4
stoichiometry N [8]: 4

Substance: KirBac3.1 S129C-F135C (Cys-less background C262S, C71V, C119V), disulfide-linked (from UniProt D9N164 1-295) (natural protein)
stoichiometry N [11]: 4
stoichiometry N [12]: 4

Now from value to substance:

stoichiometry N [5]: 4
stoichiometry N [6]: 4
Substance: KirBac3.1 S129C-F135C (Cys-less background C262S, C71V, C119V) crosslinked with dibromobimane (from UniProt D9N164 1-295) (natural protein)

stoichiometry N [9]: 4
stoichiometry N [10]: 4
Substance: KirBac3.1 A133C-T136C (Cys-less background C262S, C71V, C119V) crosslinked with dibromobimane (from UniProt D9N164 1-295) (natural protein)
